The numbers were not newly measured in publication PMC10466379, which cites them from elsewhere.

Holding throughout (assay): not stated (values taken from the PKAD database; the article says PKAD values come mainly from NMR or IR titrations)
Holding throughout (settings): not stated (the curated set excludes proteins with ligands, nucleic acids and structural metal ions)

The target of data set [1] is Glu90 (UniProt position 172, YGRGLEYIYAD).
The target of data set [2] is Glu132 (UniProt position 214, KSEAQEKKEKL).
The target in data set [3] is Glu34 (UniProt position 116, GQPMTERLLLV).
Data set [4] addresses Glu20 (UniProt position 102, IKAIDEDTVKL).
Data set [5] has as its target Glu72 (UniProt position 154, ENAKKEEVEFD).
Data set [6] deals with Glu25 (UniProt position 107, GDTVKEMYKGQ).
Data set [7] addresses Glu37 (UniProt position 119, MTFRLELVDTP).
Data set [8] deals with Glu38 (UniProt position 120, TFRLLEVDTPE).
The target of data set [9] is Glu100 (UniProt position 182, DGKMVEEALVR).
The target in data set [10] is Glu118 (UniProt position 200, YVYKPENTHEQ).
In data set [11] the target is Glu41 (UniProt position 123, LLLVDEPETKH).
Data set [12] concerns the target Glu62 (UniProt position 144, EASAFEKKMVE).
For data set [13], the target named is Glu23 (UniProt position 105, IDGDTEKLMYK).
Data set [14] has as its target Glu39 (UniProt position 121, FRLLLEDTPET).
Data set [15] has as its target Glu74 (UniProt position 156, AKKIEEEFDKG).
The target in data set [16] is Glu99 (UniProt position 181, ADGKMENEALV).
The target of data set [17] is Glu91 (UniProt position 173, GRGLAEIYADG).

By pKa is commonly meant the negative logarithm of the acid dissociation constant. For the substance “staphylococcal nuclease variant A90E (parent PDB 2LKV) (Staphylococcus aureus (inferred from PDB 2LKV; not stated in the article); A90E)”, in [1], the pKa is listed as 6.4.

In the case of “staphylococcal nuclease variant A132E (parent PDB 2LKV) (Staphylococcus aureus (inferred from PDB 2LKV; not stated in the article); A132E)”, in [2], the pKa is 7.

Consider “staphylococcal nuclease variant F34E (parent PDB 2LKV) (Staphylococcus aureus (inferred from PDB 2LKV; not stated in the article); F34E)”, for which, in data set [3], the pKa is given as 7.3.

For the substance “staphylococcal nuclease variant G20E (parent PDB 2LKV) (Staphylococcus aureus (inferred from PDB 2LKV; not stated in the article); G20E)”, in [4], the pKa is listed as 4.5.

As to “staphylococcal nuclease variant I72E (parent PDB 2LKV) (Staphylococcus aureus (inferred from PDB 2LKV; not stated in the article); I72E)”, the pKa in data set [5] is listed as 7.3.

In the case of “staphylococcal nuclease variant L25E (parent PDB 2LKV) (Staphylococcus aureus (inferred from PDB 2LKV; not stated in the article); L25E)”, the pKa in data set [6] was 7.5.

“staphylococcal nuclease variant L37E (parent PDB 2LKV) (Staphylococcus aureus (inferred from PDB 2LKV; not stated in the article); L37E)”: in data set [7], the pKa is reported as 5.2.

For the substance “staphylococcal nuclease variant L38E (parent PDB 2LKV) (Staphylococcus aureus (inferred from PDB 2LKV; not stated in the article); L38E)”, in data set [8], the pKa is recorded as 6.8.

As to “staphylococcal nuclease variant N100E (parent PDB 2LKV) (Staphylococcus aureus (inferred from PDB 2LKV; not stated in the article); N100E)”, the pKa in data set [9] is on record as 7.6.

With “staphylococcal nuclease variant N118E (parent PDB 2LKV) (Staphylococcus aureus (inferred from PDB 2LKV; not stated in the article); N118E)”, in [10], the pKa is 4.5.

Regarding “staphylococcal nuclease variant T41E (parent PDB 2LKV) (Staphylococcus aureus (inferred from PDB 2LKV; not stated in the article); T41E)”, the pKa in [11] is given as 6.8.

Regarding “staphylococcal nuclease variant T62E (parent PDB 2LKV) (Staphylococcus aureus (inferred from PDB 2LKV; not stated in the article); T62E)”, the pKa in [12] is 7.7.

“staphylococcal nuclease variant V23E (parent PDB 2LKV) (Staphylococcus aureus (inferred from PDB 2LKV; not stated in the article); V23E)”: the pKa in data set [13] is 7.1.

As to “staphylococcal nuclease variant V39E (parent PDB 2LKV) (Staphylococcus aureus (inferred from PDB 2LKV; not stated in the article); V39E)”, the pKa in [14] is recorded as 8.2.

In the case of “staphylococcal nuclease variant V74E (parent PDB 2LKV) (Staphylococcus aureus (inferred from PDB 2LKV; not stated in the article); V74E)”, the pKa in [15] is 7.8.

Take “staphylococcal nuclease variant V99E (parent PDB 2LKV) (Staphylococcus aureus (inferred from PDB 2LKV; not stated in the article); V99E)”: the pKa in data set [16] was 8.4.

Take “staphylococcal nuclease variant Y91E (parent PDB 2LKV) (Staphylococcus aureus (inferred from PDB 2LKV; not stated in the article); Y91E)”: the pKa in data set [17] is recorded as 7.1.
